Data from patent US7572594B2, “Screening assays for agonists or antagonists or receptor activator of NF-κB” (Immunex Corporation, priority 2000, dated 2009).
“Also recorded” adds a separate entry of the source.

Assays:
[1] = tested on: spleen cells from RANK −/− mice; experiment: CaPO4 resorption (pit formation) assay; format: cell-based, mouse; settings: 5 days in 40 ng/ml CSF-1 and 200 ng/ml mRANK-L on CaPO4 film; listed as full-length RANK
Description: The resorption of CaPO4, upon which this assay is based, is considered to be a measure of osteoclast activity. Spleen cells were isolated from 3-6 week old RANK −/− mice and treated as described in Example 9 to remove cells expressing the CD3, Ter-119, and GR-1 antigens. Cells not expressing any of these antigens were harvested and infected as described in Example 9 with retroviral vector particles containing full-length or TRAF6 binding site deletion mutants of RANK.
Following infection, the spleen cells were harvested and plated in MEM containing 10% fetal bovine serum containing 40 ng/ml CSF-1 and 200 ng/ml mRANK-L onto 16 well quartz slides coated with a thin film of CaPO4 (Osteologic, BD Biosystems). After 5 days in culture, the slides were washed, the cells removed by washing with bleach, and the slides washed again with buffer. […] The number of pits in the CaPO4 film is a measure of the extent to which the RANK-L induced the cells grown on that slide to differentiate into osteoclasts.
If desired, the CaPO4 film can be stained using a 0.5% solution of alizarin red for 4 to 5 minutes followed by washing in water. After staining, the resorptive lacunae are visualized by phase contrast microscopy as a clear area on a red background.

[2] = tested on: c-src tyrosine kinase; experiment: c-src immune complex kinase assay in RANK −/− osteoclast precursors infected with RANK retrovirus; format: cell-based, mouse
Description: Experiments were conducted in which DNA encoding wild-type or human RANK/TRAF6 binding mutant (RANK Δ340-421) was introduced into hematopoietic cells isolated from RANK −/− mice. Full-length and mutant human RANK DNAs were subcloned into the pBMNZ retroviral vector as previously described (Kinsella and Nolan, 1996, Human Gene Therapy 7:1405-1413). Infectious RANK-containing retrovirus was produced in 293-E Phoenix packaging cells as described (Kinsella and Nolan, 1996). Supernatants from these cells were used as a source of infectious virus particles.
The generation of the RANK −/− mice used in these assays has been described previously (Dougall et al., 1999). Spleen cells were isolated from 3-6 week old RANK−/− mice and enriched for osteoclast precursors by depleting the initial cell population of various types of cells other than osteoclast precursors. For this “depletion” step, the cells were incubated with biotinylated antibodies against CD3 (specific for T cells), Ter-119 (specific for erythrocytes), and GR-1 (specific for granulocytes). After the antibodies had bound to their respective target cells, streptavidin-conjugated magnetic beads were added to the culture, and the mixture of cells was passed over magnetic columns (MACS depletion columns; MILLTENNYI). […]
To induce c-src and F-actin rings, recombinant mRANK-L/leucine zipper protein was added to the cultures at a concentration of 1 μg/ml for various times after which the cells were lysed in a buffer containing 50 mM HEPES (pH 7.2), 10% glycerol, 250 mM NaCl and 1% Triton X-100. […] C-src activity in the immune complex was monitored using a commercially available assay kit (Upstate Biotechnology, Lake Placid, N.Y.). […] The phosphorylated substrate peptide was then separated from the residual labeled ATP using phosphocellulose paper and labeled peptide was quantified using a scintillation counter. […]

[3] = tested on: mouse TRAP promoter (SEQ ID NO:12); experiment: mouse TRAP promoter/luciferase reporter in 293/EBNA cells; format: cell-based; settings: 24 hours after transfection, 0.4 ng RANK vector, 20 ng RANK-L vector
Description: This example describes the activation of the TRAP promoter. A 2.6 kb DNA fragment containing the human TRAP promoter was obtained by digesting the plasmid pBL2HT2.2 with the restriction endonuclease ApaI. The cloning of the human TRAP gene 5′ region and the construction of pBL2HT2.2 are fully described in Reddy et al. (Bone 16:587-593 (1995)). A DNA containing the mouse TRAP promoter (SEQ ID NO:12) and a DNA containing the murine MMP-9 promoter (SEQ ID NO:11) also were used for these experiments. DNAs containing the promoters were fused to the luciferase reporter gene. These promoter/reporter constructs were transfected into human 293/EBNA cells along with various combinations of expression vectors that encoded full-length human RANK (SEQ ID NO:2) and human full-length RANK-L proteins (SEQ ID NO:6).
For the mouse TRAP promoter (SEQ ID NO:12), 2×10^5 293/EBNA cells were transfected using DEAE/dextran with 40 ng of a plasmid encoding approximately 2 kb of the mouse TRAP promoter (SEQ ID NO:12) fused to a luciferase reporter, 20 ng of an expression vector encoding RANK-L (SEQ ID NO:6), and 0.4 ng of an expression vector encoding RANK (SEQ ID NO:2). Twenty four hours after transfection, luciferase activity in cell lysates was measured according to manufacturer's instructions (Promega) using a EG&G/Berthold luminometer. […]

B1: wild type RANK: full-length human RANK, receptor activator of NF-κB (SEQ ID NO:2), expressed from vector or retrovirus (protein, listed as Homo sapiens)
chain: MAPRARRRRPLFALLLLCALLARLQVALQIAPPCTSEKHYEHLGRCCNKCEPGKYMSSKCTTTSDSVCLPCGPDEYLDSWNEEDKCLLHKVCDTGKALVAVVAGNSTTPRRCACTAGYHWSQDCECCRRNTECAPGLGAQHPLQLNKDTVCKPCLAGYFSDAFSSTDKCRPWTNCTFLGKRVEHHGTEKSDAVCSSSLPARKPPNEPHVYLPGLIILLLFASVALVAAIIFGVCYRKKGKALTANLWHWINEACGRLSGDKESSGDSCVSTHTANFGQQGACEGVLLLTLEEKTFPEDMCYPDQGGVCQGTCVGGGPYAQGEDARMLSLVSKTEIEEDSFRQMPTEDEYMDRPSQPTDQLLFLTEPGSKSTPPFSEPLEVGENDSLSQCFTGTQSTVGSESCNCTEPLCRTDWTPMSSENYLQKEVDSGHCPHWAASPSPNWADVCTGCRNPPGEDCEPLVGSPKRGPLPQCAYGMGLPPEEEASRTEARDQPEDGADGRLPSSARAGAGSGSSPGGQSPASGNVTGNSNSTFISSGQVMNFKGDIIVVYVSQTSQEGAAAAAEPMGRPVQEETLARRDSFAGNGPRFPDPCGGPEGLREPEKASRPVQEQGGAKA
Q: For B1, which CaPO4 resorption [1] is on record?
A: Its CaPO4 resorption is “resorbed the CaPO4 matrix; also recorded: high levels of CaPO4 resorption”.

Q: What about the “32P incorporated into a c-src-specific substrate versus extracts from cells defective in RANK” value ([2]; cell extracts following differentiation) of the same molecule?
A: Its value is “about 15 fold”.

Q: What about the c-src activity ([2]; cells differentiated after retroviral infection, background = uninfected RANK −/− cells) of the same molecule?
A: The c-src activity was “high levels of c-src activity”.

Q: And the “increase of reporter expression (luciferase)” value [3]?
A: The value was “approximately 2 fold”.
